Experimental data as given in article PMC3036719.
Like-named read-outs stand apart in the source and are kept apart here.

What was measured:
human fibrinogen (human) [1] = target: human fibrinogen (human) (UniProt P02671)
human fibrinogen (human) [2] = target: human fibrinogen (human) (UniProt P02671); assay: ELISA; host protein (1 µg per well) immobilised in microtiter wells, blocked with 20 mg/mL BSA; recombinant LigB in 20 mg/mL BSA in PBS pH 7.2, 1 h at 37°C; bound LigB detected by its polyhistidine tag; apparent Kd from the LigB concentration at half-maximal binding
[3] = target: human fibronectin from plasma (human); assay: as above
[4] = target: human fibronectin from fibroblasts (human); assay: as above
[5] = target: human fibronectin from plasma (human); assay: as above; remark: listed apart in the source
[6] = target: human type III collagen (human) (UniProt P02461); assay: as above
human fibrinogen (human) [7] = target: human fibrinogen (human) (UniProt P02671); assay: as above; remark: listed apart in the source
human fibrinogen (human) [8] = target: human fibrinogen (human) (UniProt P02671); assay: ELISA; data not shown; LigB proteins on immobilised fibronectin, its 70-kDa N-terminal fragment or fibrinogen
[9] = target: human fibronectin from plasma (human); assay: as above
human fibrinogen (human) [10] = target: human fibrinogen (human) (UniProt P02671); assay: bacterial cell adhesion ELISA; wells coated with 1 µg human fibrinogen or fragment D, blocked with 20 mg/mL BSA; 3×10^8 leptospires, 1 h at 30°C; adherent cells fixed with formaldehyde and detected with a rabbit antibody to L. biflexa; increase over wild-type L. biflexa
[11] = target: fibrinogen fragment D (human); assay: as above
Sequence of fibrinogen fragment D (human) (P02671 130-216, chain 1 of 3): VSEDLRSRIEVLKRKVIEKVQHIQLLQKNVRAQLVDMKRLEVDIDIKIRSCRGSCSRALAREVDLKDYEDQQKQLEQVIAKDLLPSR
Sequence of fibrinogen fragment D (human) (P02675 164-491, chain 2 of 3, further chain): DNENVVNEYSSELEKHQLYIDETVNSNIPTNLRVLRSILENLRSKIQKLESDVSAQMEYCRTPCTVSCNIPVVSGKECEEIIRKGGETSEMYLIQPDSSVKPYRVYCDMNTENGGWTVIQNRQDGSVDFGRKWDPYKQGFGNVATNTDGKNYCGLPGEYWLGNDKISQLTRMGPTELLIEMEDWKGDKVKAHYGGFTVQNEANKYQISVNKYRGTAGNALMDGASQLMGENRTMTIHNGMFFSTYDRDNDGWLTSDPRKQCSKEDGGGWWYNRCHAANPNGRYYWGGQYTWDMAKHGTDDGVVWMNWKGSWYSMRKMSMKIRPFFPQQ
Sequence of fibrinogen fragment D (human) (P02679 114-432, chain 3 of 3, further chain): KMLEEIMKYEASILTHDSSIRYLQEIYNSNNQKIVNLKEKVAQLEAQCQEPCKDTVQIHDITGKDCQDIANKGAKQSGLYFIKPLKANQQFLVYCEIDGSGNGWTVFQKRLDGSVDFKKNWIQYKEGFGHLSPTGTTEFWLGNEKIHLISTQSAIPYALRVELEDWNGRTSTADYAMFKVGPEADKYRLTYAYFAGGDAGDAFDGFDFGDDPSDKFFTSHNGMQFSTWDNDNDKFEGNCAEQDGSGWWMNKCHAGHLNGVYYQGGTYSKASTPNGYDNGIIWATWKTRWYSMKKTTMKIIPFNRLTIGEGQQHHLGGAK

Sequence of human fibrinogen (human) (P02671 20-866, chain 1 of 3): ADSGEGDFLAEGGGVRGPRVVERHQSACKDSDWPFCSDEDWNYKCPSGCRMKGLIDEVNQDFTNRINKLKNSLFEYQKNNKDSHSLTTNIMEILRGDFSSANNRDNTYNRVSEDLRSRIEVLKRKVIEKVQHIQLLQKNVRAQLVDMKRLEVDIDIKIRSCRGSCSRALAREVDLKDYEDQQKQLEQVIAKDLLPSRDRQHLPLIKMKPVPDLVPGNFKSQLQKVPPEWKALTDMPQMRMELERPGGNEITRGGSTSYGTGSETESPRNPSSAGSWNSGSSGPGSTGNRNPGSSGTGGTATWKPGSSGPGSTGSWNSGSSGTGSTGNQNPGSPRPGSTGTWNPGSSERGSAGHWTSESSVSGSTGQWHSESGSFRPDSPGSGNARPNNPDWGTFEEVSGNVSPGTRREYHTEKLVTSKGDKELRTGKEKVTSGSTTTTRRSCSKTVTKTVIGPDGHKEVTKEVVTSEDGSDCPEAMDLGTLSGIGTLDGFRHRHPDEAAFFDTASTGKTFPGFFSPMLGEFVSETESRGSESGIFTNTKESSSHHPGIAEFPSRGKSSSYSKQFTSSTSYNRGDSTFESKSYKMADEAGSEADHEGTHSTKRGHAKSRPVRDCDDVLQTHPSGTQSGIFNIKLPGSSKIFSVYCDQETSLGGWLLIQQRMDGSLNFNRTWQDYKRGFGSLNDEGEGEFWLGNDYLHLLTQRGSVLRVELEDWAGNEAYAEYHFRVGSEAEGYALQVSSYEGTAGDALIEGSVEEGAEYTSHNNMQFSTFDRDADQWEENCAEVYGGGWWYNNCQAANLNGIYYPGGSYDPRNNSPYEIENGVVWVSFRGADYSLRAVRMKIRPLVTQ
Sequence of human fibrinogen (human) (P02675 31-491, chain 2 of 3, further chain): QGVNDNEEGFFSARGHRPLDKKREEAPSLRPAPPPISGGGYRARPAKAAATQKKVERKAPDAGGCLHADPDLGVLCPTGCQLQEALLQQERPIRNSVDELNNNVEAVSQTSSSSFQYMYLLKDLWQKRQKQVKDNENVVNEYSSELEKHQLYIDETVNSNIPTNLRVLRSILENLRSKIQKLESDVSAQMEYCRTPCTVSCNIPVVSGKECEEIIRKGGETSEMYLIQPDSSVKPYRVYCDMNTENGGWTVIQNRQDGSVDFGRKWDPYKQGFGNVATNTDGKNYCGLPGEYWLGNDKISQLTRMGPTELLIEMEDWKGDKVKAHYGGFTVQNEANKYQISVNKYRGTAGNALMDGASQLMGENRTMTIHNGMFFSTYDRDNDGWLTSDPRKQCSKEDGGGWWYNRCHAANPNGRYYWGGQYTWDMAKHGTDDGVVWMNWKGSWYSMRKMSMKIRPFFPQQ
Sequence of human fibrinogen (human) (P02679 27-453, chain 3 of 3, further chain): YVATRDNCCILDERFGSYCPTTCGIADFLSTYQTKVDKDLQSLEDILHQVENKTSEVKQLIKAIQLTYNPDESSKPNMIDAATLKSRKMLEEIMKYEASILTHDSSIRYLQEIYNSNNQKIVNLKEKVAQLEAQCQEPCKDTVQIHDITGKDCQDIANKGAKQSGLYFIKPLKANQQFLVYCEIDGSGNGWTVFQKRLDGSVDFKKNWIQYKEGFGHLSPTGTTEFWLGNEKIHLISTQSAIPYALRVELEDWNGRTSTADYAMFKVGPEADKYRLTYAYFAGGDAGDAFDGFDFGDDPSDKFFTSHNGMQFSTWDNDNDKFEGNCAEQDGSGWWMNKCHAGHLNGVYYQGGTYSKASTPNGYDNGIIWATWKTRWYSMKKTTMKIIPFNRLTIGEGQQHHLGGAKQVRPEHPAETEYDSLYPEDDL
Sequence of human type III collagen (human) (P02461 154-1221): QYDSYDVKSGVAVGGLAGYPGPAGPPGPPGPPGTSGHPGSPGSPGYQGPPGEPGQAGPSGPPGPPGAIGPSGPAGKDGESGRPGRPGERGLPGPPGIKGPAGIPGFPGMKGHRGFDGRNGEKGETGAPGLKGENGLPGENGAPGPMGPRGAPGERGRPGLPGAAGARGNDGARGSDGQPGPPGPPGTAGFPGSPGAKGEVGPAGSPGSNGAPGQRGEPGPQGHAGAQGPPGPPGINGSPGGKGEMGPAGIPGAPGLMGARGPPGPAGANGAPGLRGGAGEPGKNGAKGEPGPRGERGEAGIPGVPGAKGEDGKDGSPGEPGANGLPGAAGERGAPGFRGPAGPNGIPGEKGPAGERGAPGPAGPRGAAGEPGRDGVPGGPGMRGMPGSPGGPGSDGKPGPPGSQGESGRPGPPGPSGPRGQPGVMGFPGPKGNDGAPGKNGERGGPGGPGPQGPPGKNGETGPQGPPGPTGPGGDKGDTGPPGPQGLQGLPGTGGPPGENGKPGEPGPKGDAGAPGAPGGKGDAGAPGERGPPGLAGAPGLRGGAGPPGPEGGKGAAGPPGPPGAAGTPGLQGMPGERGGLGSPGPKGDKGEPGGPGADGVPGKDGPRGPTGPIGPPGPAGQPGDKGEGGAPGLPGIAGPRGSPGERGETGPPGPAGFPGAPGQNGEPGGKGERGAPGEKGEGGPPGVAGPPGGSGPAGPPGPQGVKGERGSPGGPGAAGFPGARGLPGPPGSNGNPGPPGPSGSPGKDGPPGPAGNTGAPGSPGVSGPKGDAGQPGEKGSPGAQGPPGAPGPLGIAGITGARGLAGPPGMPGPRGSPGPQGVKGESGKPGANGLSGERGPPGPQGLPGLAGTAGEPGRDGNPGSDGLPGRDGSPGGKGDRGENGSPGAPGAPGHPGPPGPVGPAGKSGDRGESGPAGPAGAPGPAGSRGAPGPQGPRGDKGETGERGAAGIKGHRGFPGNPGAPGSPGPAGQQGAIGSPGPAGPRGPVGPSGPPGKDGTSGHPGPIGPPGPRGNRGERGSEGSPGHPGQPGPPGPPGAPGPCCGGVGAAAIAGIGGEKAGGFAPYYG

Substance | Kd (human fibrinogen (human) [2]) | Kd [3] | further results
LigB9-11 (domain or fragment) | 27 nM | 31 nM | decrease of thrombin-catalysed fibrin formation from purified fibrinogen (3 µM fibrinogen preincubated with 5 µM LigB9-11; three determinations, 22 to 43%) (human fibrinogen (human) [1]): 29%; Kd [4]: 25 nM; Kd [5]: 32 nM; Kd [6]: 30 nM; Kd (human fibrinogen (human) [7]): 28 nM
LigB9-11′ (domain or fragment) |  |  | percent decrease of fibrinogen-binding activity relative to LigB9-11 (human fibrinogen (human) [8]): 50%; percent decrease of fibronectin-binding activity relative to LigB9-11 [9]: 80%
LigB from L. interrogans expressed on L. biflexa (ligB transformant) (natural protein) |  |  | percent increase of adhesion over wild-type L. biflexa (human fibrinogen (human) [10]): 55%; percent increase of adhesion over wild-type L. biflexa (representative experiment) (human fibrinogen (human) [10]): 37%
LigB9-12 (domain or fragment) | 37 nM | 22 nM | 
LigB8-12 (domain or fragment) |  | 26 nM | 
LigA from L. interrogans expressed on L. biflexa (ligA transformant) (natural protein) |  |  | percent increase of adhesion over wild-type L. biflexa [11]: 58%; percent increase of adhesion over wild-type L. biflexa (human fibrinogen (human) [10]): 55%; percent increase of adhesion over wild-type L. biflexa (representative experiment) (human fibrinogen (human) [10]): 56%
LigB7′-10 (domain or fragment) | 207 nM | 77 nM | 
LigB7′-11 (domain or fragment) | 63 nM | 27 nM | 
LigB7′-12 (domain or fragment) | 34 nM | 23 nM | 
LigB9-10 (domain or fragment) | 169 nM | 252 nM | 
LigB9-11 with N-terminal H6 (cloned in pET-14b) (domain or fragment) |  |  | residual fibrinogen-binding activity relative to LigB9-11 (human fibrinogen (human) [8]): < 10%
